Values belong to the substance of their own block, whether it stands above or below them.
Experiments:
[1] = target: tubulin (taxol-stabilized microtubules); assay: TIRF intensity of HC on microtubules; settings: reference: HC1-1500 + DYRK1a without ATP
actin (filaments) = actin (filaments) (UniProt P68135); assay: TIRF intensity of HC on actin filaments; settings: reference: HC1-1500 + DYRK1a without ATP
[2] = target: taxol-stabilized microtubules (porcine brain tubulin) (porcine); assay: TIRF microscopy binding assay (fluorescence intensity on filaments); fluorescent MAP1B constructs in solution on taxol-stabilized microtubules held on the coverslip; titrations for KD (KD of the LC called apparent); 10 nM on WT and subtilisin-digested microtubules in the same chamber; 90 mM Hepes pH 7.4, 150 mM K-acetate, 2 mM Mg-acetate, 1 mM EGTA, 10% glycerol, 10 uM taxol
[3] = target: subtilisin-digested microtubules (porcine brain tubulin without the C-terminal tails) (porcine); assay: as above
[4] = target: taxol-stabilized microtubules (porcine brain tubulin) (porcine)
[5] = target: taxol-stabilized microtubules (porcine brain tubulin) (porcine); assay: TIRF microscopy binding assay (fluorescence intensity on filaments); 50 nM bacterially expressed HC^1-1500 on microtubules after incubation with DYRK1a with or without ATP (37 C, 30 min)
[6] = target: actin filaments (rabbit skeletal muscle actin) (rabbit) (UniProt P68135); assay: TIRF microscopy binding assay (fluorescence intensity on filaments); 50 nM bacterially expressed HC^1-1500 on actin filaments after incubation with DYRK1a with or without ATP (37 C, 30 min)

Substance: MAP1B (heavy chain HC, light chain LC/LC1) HC 1-1500 (from UniProt P14873) HC1-1500 + DYRK1a with ATP
other: percent reduction [1]: 21%
other: percent reduction (actin (filaments)): 75%

Substance: MAP1B HC MTBD^639-767 (from UniProt P14873 639-767) (domain or fragment)
Kd [2]: 13.6 nM

Kd [2]: 3.8 nM
Substance: MAP1B HC^1-2202-sfGFP (full-length MAP1B heavy chain) (from UniProt P14873 1-2202) (domain or fragment)

percent decrease of fluorescence intensity against WT microtubules [3]: 87%
Kd [2]: 1.5 nM
Substance: MAP1B LC 2203-2464-sfGFP (from UniProt P14873 2203-2464) (domain or fragment)

reduction of microtubule fluorescence intensity after 10 min with spastin (severing) in the presence of 10 nM LC-sfGFP; 82% with spastin alone [4]: 19%
reduction of microtubule fluorescence intensity after 10 min with spastin (severing) in the presence of 50 nM sfGFP-HC^1-1500; 82% with spastin alone [4]: 60%
Substance: TMR-spastin (truncated human spastin, delta227) (from UniProt Q9UBP0 1-616) (enzyme)

Kd [2]: 185 nM
Substance: sfGFP-MAP1B HC^1-532 (from UniProt P14873 1-532) (domain or fragment)

Kd [2]: 1.1 nM
Substance: sfGFP-MAP1B HC^1-1103 (from UniProt P14873 1-1103) (domain or fragment)

percent decrease of fluorescence intensity against WT microtubules [3]: 45%
Kd [2]: 1.8 nM
Substance: sfGFP-MAP1B HC^1-1500, bacterially expressed (from UniProt P14873 1-1500) (domain or fragment)

percent reduction of fluorescence intensity on microtubules against the sample without ATP [5]: 21%
percent reduction of fluorescence intensity on actin filaments against the sample without ATP [6]: 75%
Substance: sfGFP-MAP1B HC^1-1500, bacterially expressed, phosphorylated by DYRK1a (from UniProt P14873 1-1500) (domain or fragment)
